Source: patent publication US20150099790A1

Key:
Test in all cases: TAP purification of tagged bait from yeast, trypsin digestion, mass spectrometric identification of co-purified proteins
[1] = molecular target: Cor1 (Saccharomyces cerevisiae) (UniProt P07256)
[2] = molecular target: Nde1 (Saccharomyces cerevisiae) (UniProt P40215)
[3] = molecular target: Mpc3 (S. cerevisiae, encoded by YGR243W) (S. cerevisiae) (UniProt P53311)
[4] = molecular target: Md12 (Saccharomyces cerevisiae) (UniProt P33311)
Sequence of Md12 (Saccharomyces cerevisiae) (P33311 91-773 limits assumed): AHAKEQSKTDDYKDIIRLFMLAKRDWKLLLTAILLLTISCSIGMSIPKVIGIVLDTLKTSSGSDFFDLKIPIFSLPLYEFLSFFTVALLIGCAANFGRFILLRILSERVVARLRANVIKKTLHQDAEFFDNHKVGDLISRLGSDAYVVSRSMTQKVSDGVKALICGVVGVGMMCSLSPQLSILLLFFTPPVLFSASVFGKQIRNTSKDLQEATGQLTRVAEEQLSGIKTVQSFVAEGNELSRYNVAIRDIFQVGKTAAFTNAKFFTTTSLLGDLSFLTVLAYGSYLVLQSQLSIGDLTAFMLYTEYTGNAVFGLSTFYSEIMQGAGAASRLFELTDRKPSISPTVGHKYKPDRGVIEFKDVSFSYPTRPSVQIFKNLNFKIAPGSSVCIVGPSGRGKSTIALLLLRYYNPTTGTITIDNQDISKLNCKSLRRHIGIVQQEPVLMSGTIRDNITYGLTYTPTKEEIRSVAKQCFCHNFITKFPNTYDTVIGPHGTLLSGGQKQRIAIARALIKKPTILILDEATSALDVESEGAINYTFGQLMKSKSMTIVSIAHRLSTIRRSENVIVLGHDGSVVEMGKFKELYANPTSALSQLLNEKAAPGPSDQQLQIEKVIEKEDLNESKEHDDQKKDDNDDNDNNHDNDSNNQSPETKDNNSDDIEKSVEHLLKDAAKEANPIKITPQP

[5] = molecular target: Gut2 (Saccharomyces cerevisiae) (UniProt P32191)
Sequence of Gut2 (Saccharomyces cerevisiae) (P32191 whole entry): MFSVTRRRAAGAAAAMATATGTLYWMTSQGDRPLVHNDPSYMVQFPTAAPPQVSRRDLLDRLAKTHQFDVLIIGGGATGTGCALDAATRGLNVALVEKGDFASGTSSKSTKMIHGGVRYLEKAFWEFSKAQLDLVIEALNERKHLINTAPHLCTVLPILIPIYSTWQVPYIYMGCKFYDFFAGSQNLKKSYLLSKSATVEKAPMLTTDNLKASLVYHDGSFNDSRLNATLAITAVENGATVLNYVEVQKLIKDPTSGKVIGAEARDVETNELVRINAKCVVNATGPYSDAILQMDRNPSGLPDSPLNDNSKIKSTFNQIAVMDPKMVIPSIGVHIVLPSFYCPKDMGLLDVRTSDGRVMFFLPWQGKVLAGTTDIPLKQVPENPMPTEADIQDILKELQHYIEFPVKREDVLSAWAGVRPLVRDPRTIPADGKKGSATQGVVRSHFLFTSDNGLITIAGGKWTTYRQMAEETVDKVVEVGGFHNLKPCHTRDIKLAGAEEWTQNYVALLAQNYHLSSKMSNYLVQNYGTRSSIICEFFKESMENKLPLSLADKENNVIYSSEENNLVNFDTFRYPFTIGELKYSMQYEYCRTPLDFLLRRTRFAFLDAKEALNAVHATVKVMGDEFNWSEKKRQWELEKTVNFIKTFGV

[6] = molecular target: Qcr2 (Saccharomyces cerevisiae) (UniProt P07257)
Sequence of Qcr2 (Saccharomyces cerevisiae) (P07257 17-368 limits assumed): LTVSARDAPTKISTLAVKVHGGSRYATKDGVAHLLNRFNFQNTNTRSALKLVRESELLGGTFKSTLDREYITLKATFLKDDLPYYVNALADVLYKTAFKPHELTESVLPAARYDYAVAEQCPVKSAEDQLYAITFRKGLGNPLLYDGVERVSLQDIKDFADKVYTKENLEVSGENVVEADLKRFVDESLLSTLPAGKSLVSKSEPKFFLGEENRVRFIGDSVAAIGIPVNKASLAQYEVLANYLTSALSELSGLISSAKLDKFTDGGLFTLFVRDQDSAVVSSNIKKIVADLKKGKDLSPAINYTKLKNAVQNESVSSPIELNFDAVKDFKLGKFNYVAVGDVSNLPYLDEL

[7] = molecular target: Mpm1 (Saccharomyces cerevisiae) (UniProt P40364)
Sequence of Mpm1 (Saccharomyces cerevisiae) (P40364 whole entry): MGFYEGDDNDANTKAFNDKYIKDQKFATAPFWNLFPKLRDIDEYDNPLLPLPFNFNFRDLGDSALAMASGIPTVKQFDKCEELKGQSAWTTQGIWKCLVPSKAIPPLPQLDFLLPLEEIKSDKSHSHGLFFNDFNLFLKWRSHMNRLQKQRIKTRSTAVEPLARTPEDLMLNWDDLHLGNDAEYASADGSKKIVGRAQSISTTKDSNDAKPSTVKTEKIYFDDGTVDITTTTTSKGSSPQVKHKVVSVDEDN

[8] = molecular target: Fmp24 (Saccharomyces cerevisiae) (UniProt Q04472)
Sequence of Fmp24 (Saccharomyces cerevisiae) (Q04472 whole entry): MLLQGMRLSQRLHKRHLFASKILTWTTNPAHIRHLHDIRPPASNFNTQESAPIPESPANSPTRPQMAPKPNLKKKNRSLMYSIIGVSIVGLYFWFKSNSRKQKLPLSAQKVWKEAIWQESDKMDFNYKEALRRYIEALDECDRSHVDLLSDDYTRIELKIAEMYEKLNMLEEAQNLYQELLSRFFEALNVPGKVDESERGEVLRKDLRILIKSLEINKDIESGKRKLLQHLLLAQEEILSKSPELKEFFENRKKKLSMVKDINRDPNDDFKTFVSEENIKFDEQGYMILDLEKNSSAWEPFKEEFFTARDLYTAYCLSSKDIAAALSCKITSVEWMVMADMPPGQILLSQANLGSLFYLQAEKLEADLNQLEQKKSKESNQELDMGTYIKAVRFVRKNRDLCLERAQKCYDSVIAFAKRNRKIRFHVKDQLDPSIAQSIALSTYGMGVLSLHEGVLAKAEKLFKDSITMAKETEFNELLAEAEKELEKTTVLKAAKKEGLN

Sequence of Nde1 (Saccharomyces cerevisiae) (P40215 42-560 limits assumed): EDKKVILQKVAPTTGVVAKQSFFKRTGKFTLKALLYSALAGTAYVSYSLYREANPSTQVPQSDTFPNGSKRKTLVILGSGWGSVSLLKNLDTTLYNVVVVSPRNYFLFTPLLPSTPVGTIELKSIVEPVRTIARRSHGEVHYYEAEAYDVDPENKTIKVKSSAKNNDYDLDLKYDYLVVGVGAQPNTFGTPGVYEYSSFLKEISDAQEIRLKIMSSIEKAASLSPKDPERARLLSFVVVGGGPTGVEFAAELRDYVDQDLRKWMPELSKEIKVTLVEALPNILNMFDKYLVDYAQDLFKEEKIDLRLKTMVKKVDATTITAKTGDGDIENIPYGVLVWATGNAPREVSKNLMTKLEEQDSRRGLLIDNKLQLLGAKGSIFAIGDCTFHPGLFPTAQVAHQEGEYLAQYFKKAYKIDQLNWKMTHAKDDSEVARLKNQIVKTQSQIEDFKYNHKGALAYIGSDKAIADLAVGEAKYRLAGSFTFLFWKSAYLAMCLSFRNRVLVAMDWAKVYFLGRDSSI
Sequence of Cor1 (Saccharomyces cerevisiae) (P07256 27-457 limits assumed): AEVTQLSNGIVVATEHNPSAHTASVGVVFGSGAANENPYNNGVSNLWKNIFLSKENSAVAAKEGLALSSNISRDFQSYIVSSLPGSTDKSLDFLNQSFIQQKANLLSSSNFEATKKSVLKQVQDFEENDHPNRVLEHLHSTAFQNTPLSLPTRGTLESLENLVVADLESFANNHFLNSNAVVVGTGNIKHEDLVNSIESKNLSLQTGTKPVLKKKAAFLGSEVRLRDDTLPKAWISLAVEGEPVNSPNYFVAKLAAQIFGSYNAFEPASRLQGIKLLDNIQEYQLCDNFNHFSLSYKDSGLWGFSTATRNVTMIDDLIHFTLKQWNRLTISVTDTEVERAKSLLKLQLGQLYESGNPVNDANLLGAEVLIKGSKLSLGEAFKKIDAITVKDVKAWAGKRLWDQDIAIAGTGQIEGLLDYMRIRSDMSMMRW

Mpc2, tagged variant used for TAP purification (from UniProt P38857 1-129)
PSMs [1]: 5 PSMs | PSMs [2]: 6 PSMs | PSMs [3]: 5 PSMs | PSMs [4]: 28 PSMs | PSMs [5]: 4 PSMs | PSMs [6]: 3 PSMs

Mpc1-His6/HA2 (from UniProt P53157 1-130)
PSMs [7]: 7 PSMs | PSMs [3]: 5 PSMs | PSMs [5]: 7 PSMs | PSMs [8]: 4 PSMs
